Laboratory results from paper PMC6049852, “Comprehensive investigation of a dye-decolorizing peroxidase and a manganese peroxidase from Irpex lacteus F17, a lignin-degrading basidiomycete” (AMB Express, 2018).

Assays:
Test in all cases: purified protein
[1] = substrate: COc1ccccc1O; settings: pH 4, 45 °C, error = 95% confidence limits
[2] = substrate: CCn1c(=NN=c2sc3cc(S(=O)(=O)O)ccc3n2CC)sc2cc(S(=O)(=O)O)ccc21; assay type: biochemical, Irpex lacteus; settings: error = 95% confidence limits
[3] = substrate: Nc1c(S(=O)(=O)O)cc(Nc2cccc(S(=O)(=O)CCOS(=O)(=O)O)c2)c2c1C(=O)c1ccccc1C2=O; assay type: biochemical, Irpex lacteus; settings: error = 95% confidence limits
[4] = substrate: Nc1c(N=Nc2ccc(S(=O)(=O)CCOS(=O)(=O)O)cc2)c(S(=O)(=O)O)cc2cc(S(=O)(=O)O)c(N=Nc3ccc(S(=O)(=O)CCOS(=O)(=O)O)cc3)c(O)c12; assay type: biochemical, Irpex lacteus; settings: error = 95% confidence limits
[5] = substrate: COc1cccc(OC)c1O; assay type: biochemical, Irpex lacteus; settings: error = 95% confidence limits
[6] = substrate: COc1ccc(CO)cc1OC; assay type: biochemical, Irpex lacteus; settings: 0.1 mM H2O2, 0.1 M sodium tartrate, pH 3.5, 45 °C, error = 95% confidence limits
[7] = 0.1 mM H2O2, 0.1 M sodium tartrate
[8] = 0.1 mM H2O2, 0.1 M sodium tartrate, pH 3.5, 35 °C
[9] = 0.1 mM H2O2, 0.1 M sodium tartrate, pH 4.5, 35 °C
[10] = 0.1 mM H2O2, 0.1 M sodium tartrate, pH 4, 35 °C
[11] = 0.1 mM H2O2, 1 mM Mn2+, 0.1 M sodium tartrate
[12] = 0.1 mM H2O2, 1 mM Mn2+, 0.1 M sodium tartrate, pH 3.5, 45 °C
[13] = 0.1 mM H2O2, 1 mM Mn2+, 0.1 M sodium tartrate, pH 3, 35 °C
[14] = 0.1 mM H2O2, 1 mM Mn2+, 0.1 M sodium tartrate, pH 4.5, 55 °C

B1: Il-DyP4 (Irpex lacteus) (protein)
chain: SAGNDSLPFENIQGDILVGMKKDKEKFVFFHINNATAFKSVLKTYAPANITSVATIIGPVANQPLAFVNLAFSHAGFGALNVTDDLQDTAFSDGQFKDSPNLGDDTSTWEEAFKGTNVDGVFLIGSNDESITAQYRDDLNAKFGDAWTIVYDLDSAARPGNEKGHEHFGYLDGISNPTIPGFGTPHPGQAVVDPGIIFTGRSKDPVMNRPSWALDGSFLVFRKLKQLVPEFNKYVLDNALQNQAGNLTVEEGAELLGSRMFGRWKSGAPIDLSPDFDDPALGNDIERNNNFNYSHPGSDLATDQTRCPFTAHIRKTNPRDLEGQGLFGDTFHAIRAGTPYGPEVTDYEASSNTTTIDRGLAFVEYQSVIGNGFRFQQQAWANNPRFPFSKGPSIQLGLDPVIGQGSPRETFGLDPRNASESFTVPQVIISNGGEYFFSPSITAIVEKFAA
notes: 502 aa given, 52-aa signal peptide stated
Km [1, 7]: 24 ± 7.5 µM
kcat [1, 7]: 413 ± 34 s⁻¹
kcat/Km [1, 7]: (1.7 ± 0.1) × 10^7 s^-1M^-1
Km [2, 8]: 62 ± 11 µM
kcat [2, 8]: 8356 ± 747 s⁻¹
kcat/Km [2, 8]: (1.3 ± 0.1) × 10^8 s^-1M^-1
Km [3, 9]: 133 ± 34 µM
kcat [3, 9]: 5345 ± 921 s⁻¹
kcat/Km [3, 9]: (4.0 ± 0.7) × 10^7 s^-1M^-1
Km [4, 10]: 159 ± 61 µM
kcat [4, 10]: 267 ± 96 s⁻¹
kcat/Km [4, 10]: (1.7 ± 0.6) × 10^6 s^-1M^-1
Km [5, 10]: 58 ± 3 µM
kcat [5, 10]: 4896 ± 131 s⁻¹
kcat/Km [5, 10]: (8.4 ± 0.2) × 10^7 s^-1M^-1
Km [6]: (2.1 ± 0.98) × 10^4 μM
kcat [6]: 108 ± 47 s⁻¹
kcat/Km [6]: (5.2 ± 2.3) × 10^3 s^-1M^-1

B2: Il-MnP6 (Irpex lacteus) (protein)
chain: TKRVACPDGKNTATNAACCALFAIRDDIQENLFDGGQCGEEVHESFRLTFHDAIGIGSNGGGGADGSIAVFEAIETAFHANNGVDEIIDEQKPFIARHNITPGDFIQFAGAVGVSNCPGAPRLDFFLGRPNPVAPAPDKTVPEPFDSVTSILARFKDAGNFSPEEVVALLGSHTIAAADHVDPTIPGTPFDSTPEVFDTQVFLEVQLRGTLFPGTAGNQGEVQSPLRGEIRLQSDHDLARDQRTACEWQSFVNNQAKLQRNFKAAFKKLSILGHDERRLIDCSEVIPEPPNVKVKPATFPAGLSNKDVEQACRATPFPTLPTDPGPSTSVAPVPPS
notes: 359 aa printed, predicted 23-aa signal peptide; short-type MnP
Km [1, 11]: 2.6 ± 0.6 µM
kcat [1, 11]: 184 ± 7 s⁻¹
kcat/Km [1, 11]: (7.1 ± 0.3) × 10^7 s^-1M^-1
Km [2, 12]: 83 ± 6.5 µM
kcat [2, 12]: 245 ± 7 s⁻¹
kcat/Km [2, 12]: (3.0 ± 0.09) × 10^6 s^-1M^-1
Km [3, 13]: 81 ± 39.5 µM
kcat [3, 13]: 7.3 ± 2.6 s⁻¹
kcat/Km [3, 13]: (9.0 ± 3.2) × 10^4 s^-1M^-1
Km [4, 13]: 4.4 ± 0.7 µM
kcat [4, 13]: 0.06 ± 0.003 s⁻¹
kcat/Km [4, 13]: (1.5 ± 0.07) × 10^4 s^-1M^-1
Km [5, 14]: 53 ± 8.6 µM
kcat [5, 14]: 989 ± 100 s⁻¹
kcat/Km [5, 14]: (1.9 ± 0.2) × 10^7 s^-1M^-1
